Consider 2 molecules from patent US20200317802A1 (Merck KGaA, published 2020).

The target of assay [1] is T1, recombinant human ADAMTS5 (R&D Systems cat #2198-AD) (human, UniProt Q9UNA0 262-622, limits assumed).
T1 sequence: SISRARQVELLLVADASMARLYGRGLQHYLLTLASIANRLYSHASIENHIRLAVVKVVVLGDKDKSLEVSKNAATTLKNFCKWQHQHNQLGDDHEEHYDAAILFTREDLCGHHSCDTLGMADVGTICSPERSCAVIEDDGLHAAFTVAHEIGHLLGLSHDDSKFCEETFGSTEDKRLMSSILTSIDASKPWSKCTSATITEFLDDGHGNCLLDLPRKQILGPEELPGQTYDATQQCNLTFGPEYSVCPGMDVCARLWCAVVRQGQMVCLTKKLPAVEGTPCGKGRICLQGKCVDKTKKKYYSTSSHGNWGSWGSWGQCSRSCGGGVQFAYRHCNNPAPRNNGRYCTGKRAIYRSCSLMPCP
As to the kind of experiment: cell-based or functional assay.

Assay [2] has as its target T1, recombinant human ADAMTS5 (R&D Systems …). As to the kind of experiment: cell-based or functional assay. The source holds these as a separate data set.
Assay [3] addresses T2, cynomolgus monkey recombinant ADAMTS5 (cynomolgus monkey, UniProt Q9UNA0 262-622 (human entry), limits assumed).
T2 chain: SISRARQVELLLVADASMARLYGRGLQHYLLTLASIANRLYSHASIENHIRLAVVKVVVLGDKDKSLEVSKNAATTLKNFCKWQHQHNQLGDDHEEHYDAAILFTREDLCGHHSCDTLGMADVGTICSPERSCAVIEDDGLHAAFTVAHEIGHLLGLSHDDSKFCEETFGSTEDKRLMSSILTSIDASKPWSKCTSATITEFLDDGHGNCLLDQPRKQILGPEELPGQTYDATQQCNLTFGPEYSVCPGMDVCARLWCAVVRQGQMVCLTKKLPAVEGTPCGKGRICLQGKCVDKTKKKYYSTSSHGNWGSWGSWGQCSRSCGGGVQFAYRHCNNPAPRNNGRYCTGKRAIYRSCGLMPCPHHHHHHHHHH
As to the kind of experiment: cell-based or functional assay.

The target of assay [4] is T3, guinea pig recombinant ADAMTS5 (guinea pig).
T3 chain: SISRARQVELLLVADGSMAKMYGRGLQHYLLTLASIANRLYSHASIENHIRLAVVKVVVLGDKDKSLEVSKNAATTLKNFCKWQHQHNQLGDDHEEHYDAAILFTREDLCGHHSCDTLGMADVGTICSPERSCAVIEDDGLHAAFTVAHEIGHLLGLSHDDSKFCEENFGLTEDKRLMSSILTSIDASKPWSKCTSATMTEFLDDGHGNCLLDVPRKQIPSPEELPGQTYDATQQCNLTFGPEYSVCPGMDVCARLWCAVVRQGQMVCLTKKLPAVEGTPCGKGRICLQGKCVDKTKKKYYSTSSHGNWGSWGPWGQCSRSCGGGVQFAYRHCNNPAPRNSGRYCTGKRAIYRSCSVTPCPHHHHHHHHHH
As to the kind of experiment: cell-based or functional assay.

The target in assay [5] is T1, recombinant human ADAMTS5 (R&D Systems …). Description: cell-based or functional assay. The source holds these as a separate data set.
For assay [6] the target is unchanged. Description: SPR kinetics, Biacore T100, ADAMTS5 immobilised. The method, then:
(§1) For referencing, affinity for human ADAMTS5 was also determined. Thereto, rat and human ADAMTS5 were immobilized onto a CM5 chip via amine coupling, using EDC and NHS chemistry. Purified Nanobodies were injected for 2 minutes at different concentrations (between 1 and 1000 nM) and allowed to dissociate for 25 min at a flow rate of 45 μl/min. The kinetic constants were calculated from the sensorgrams using the BIAEvaluation software (1:1 interaction).

The target of another assay is T4, rat recombinant ADAMTS5 (rat, UniProt Q9R001 262-618 (mouse entry)).
T4 construct: in house, HEK293, His tag in the entry
T4 chain: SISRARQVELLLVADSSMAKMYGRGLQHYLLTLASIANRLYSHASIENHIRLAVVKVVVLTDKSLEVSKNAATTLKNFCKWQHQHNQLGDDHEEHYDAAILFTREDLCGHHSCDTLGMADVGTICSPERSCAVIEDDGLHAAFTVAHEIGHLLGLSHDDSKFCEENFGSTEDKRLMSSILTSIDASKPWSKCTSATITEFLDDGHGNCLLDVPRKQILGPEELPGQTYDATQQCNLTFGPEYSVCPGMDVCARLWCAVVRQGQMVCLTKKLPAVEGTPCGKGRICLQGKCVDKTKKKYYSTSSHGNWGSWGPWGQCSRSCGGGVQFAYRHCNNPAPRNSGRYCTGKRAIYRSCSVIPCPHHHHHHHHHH
Description: SPR kinetics, Biacore T100, ADAMTS5 immobilised. The method, then:
as §1
(In general: Surface plasmon resonance follows binding to a sensor surface in real time, without labels.)

Assay [7] deals with T1, recombinant human ADAMTS5 (R&D Systems …). Description: SPR off-rate, Biacore T100, ADAMTS5 immobilised, experiment 1. The method, then: (§2) Species cross-reactivity was initially evaluated via SPR-based off-rate analysis on a Biacore T100 instrument. Nanobodies were tested for binding to human, cynomolgus monkey (“cyno”), guinea pig, mouse, and bovine ADAMTS5. To this end, recombinant ADAMTS5 was immobilized onto a CM5 chip via amine coupling using EDC and NHS. Purified Nanobodies were injected for 2 minutes at a concentration of 100 nM and allowed to dissociate for 15 min at a flow rate of 45 ul/min. Off-rate for each individual Nanobody was determined by fitting a 1:1 interaction model (Langmuir model) onto the individual dissociation curves using the BIA Evaluation software. As a reference, off-rates on human ADAMTS5 were determined in each experiment.

The target of assay [8] is T2, cynomolgus monkey recombinant ADAMTS5. The assay is described as above. The method, then:
as §2

Assay [9] has as its target T3, guinea pig recombinant ADAMTS5. The description is as above. The method, then: as §2
The target of assay [10] is T1, recombinant human ADAMTS5 (R&D Systems …). As to the kind of experiment: SPR off-rate, Biacore T100, ADAMTS5 immobilised, experiment 3. The method, then: as §2

The Kd is the constant that tells how readily two partners part at equilibrium. What is called koff is a measure of how fast the partners let go of each other.

B1: Nanobody 2A12 (VHH)
VHH: EVQLVESGGGLVQAGGSLRLSCAASGRTFSSYAMGWFRQAPGKERDFVAGISRSAGRTYYVDSVKGRFTISRDSAKNTVYLQMNRLKPEDTAVYYCAADLDPNRIFSRDEAAYWGQGTLVTVSS
notes: tagged as tested (anti-Flag detection, IMAC); also called 02A12
Consider B1, for which the “FRET assay % inh, periplasmic extract” value in assay [1] is 104%. Also, the “FRET assay vi (U/min), periplasmic extract” value in [1] was -1 U/min. Besides, in assay [2], the “AlphaLISA potency IC50, Human” value was 0.15 nM. In addition, the “AlphaLISA potency IC50, Cyno” value in assay [3] turned out to be 0.19 nM. Besides, the “AlphaLISA potency IC50, Guinea pig” value in assay [4] came out at 0.53 nM. Also, the “AlphaLISA IC50, - HSA” value in assay [5] came out at 0.15 nM. Besides, the Kd was found to be 1.9 nM in [6] and 1 nM with rat recombinant ADAMTS5. In addition, the koff in [7] was 0.00014 s⁻¹; in [8] it was 0.0001 s⁻¹; in assay [9], 0.00012 s⁻¹; in [10] it was 0.00031 s⁻¹.

B2: Nanobody 2F03 (VHH)
VHH: EVQLVESGGGLVQAGGSLRLSCAASGRTVSSYAMGWFRLAPGKEREFVAGISRSAERTYYVDSLKGRFTISRDSAKNTVYLHMNRLKPEDTAVYYCAADLDPNRIFSREEYAYWGQGTLVTVSS
notes: tagged as tested (anti-Flag detection, IMAC); also called 02F03; 2F3
Regarding B2, in [1], the “FRET assay % inh, periplasmic extract” value was 103%. Moreover, the “FRET assay vi (U/min), periplasmic extract” value in assay [1] was -1 U/min. Moreover, the “AlphaLISA potency IC50, Human” value in [2] was found to be 0.075 nM. Further, the “AlphaLISA potency IC50, Cyno” value in [3] was 0.081 nM. In addition, in [4], the “AlphaLISA potency IC50, Guinea pig” value was 0.3 nM. Besides, in assay [5], the “AlphaLISA IC50, - HSA” value worked out at 0.075 nM. Moreover, the results for the Kd (in assay [6]; with rat recombinant ADAMTS5) were 1.6 nM and 0.7 nM, respectively. The koff in assay [7] was 3.3e-05 s⁻¹; in assay [8], 2.2e-05 s⁻¹; in assay [9], 3.4e-05 s⁻¹; in [10], 9.7e-05 s⁻¹.
